Broadly, the stoichiometry N is a count of units in the complex or per binding partner. As usually defined, the Kd is the equilibrium constant for the complex coming apart. High values mean weaker binding, low ones tighter binding.

This is an account of results in article PMC6323126, “Architecture, substructures, and dynamic assembly of STRIPAK complexes in Hippo signaling” (Cell Discovery, 2019).

First the molecules themselves.
T1: C-terminal domain (residues 421–837) of STRIP1, recombinant (UniProt Q5VSL9 421-837)
T1 sequence (looked up): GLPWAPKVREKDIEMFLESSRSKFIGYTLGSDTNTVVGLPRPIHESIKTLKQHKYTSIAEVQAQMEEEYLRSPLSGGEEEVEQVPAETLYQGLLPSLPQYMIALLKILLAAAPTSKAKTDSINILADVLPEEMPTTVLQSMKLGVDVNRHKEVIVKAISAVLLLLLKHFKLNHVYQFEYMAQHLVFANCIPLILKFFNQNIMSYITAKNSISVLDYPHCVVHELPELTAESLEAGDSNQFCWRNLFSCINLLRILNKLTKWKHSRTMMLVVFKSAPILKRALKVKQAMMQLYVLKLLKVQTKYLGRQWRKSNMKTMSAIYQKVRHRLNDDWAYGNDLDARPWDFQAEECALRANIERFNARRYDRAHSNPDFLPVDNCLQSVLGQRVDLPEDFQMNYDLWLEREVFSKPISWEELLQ

B1: SIKE1 second coiled-coil (CC2) region, residues 72–121 (domain or fragment, human, UniProt Q9BRV8 72-121, looked up)
chain: LLSQENTQIRDLQQENRELWISLEEHQDALELIMSKYRKQMLQLMVAKKA
notes: Homotetramer in the apo crystal, homodimer in the crystal with the STRN3 peptide; A Se-Met form was used for phasing; also called SIKE1 CC2; source: E. coli BL21 (DE3) CodonPlus, purified
B2: STRN3 coiled-coil domain (CC, amino acid residues 64–145) (domain or fragment, human, UniProt Q13033 64-145, looked up)
chain: TIPGILHYIQHEWARFEMERAHWEVERAELQARIAFLQGERKGQENLKKDLVRRIKMLEYALKQERAKYHKLKYGTELNQGD
notes: also called STRN3 CC; source: E. coli BL21 (DE3) CodonPlus, purified
B3: STRN3 fragment (residues 64–341), tag not told (domain or fragment, human, UniProt Q13033 64-341, looked up)
chain: TIPGILHYIQHEWARFEMERAHWEVERAELQARIAFLQGERKGQENLKKDLVRRIKMLEYALKQERAKYHKLKYGTELNQGDLKMPTFESEETKDTEAPTAPQNSQLTWKQGRQLLRQYLQEVGYTDTILDVRSQRVRSLLGLSNSEPNGSVETKNLEQILNGGESPKQKGQEIKRSSGDVLETFNFLENADDSDEDEENDMIEGIPEGKDKHRMNKHKIGNEGLAADLTDDPDTEEALKEFDFLVTAEDGEGAGEARSSGDGTEWDKDDLSPTAEVW
notes: source: E. coli BL21 (DE3) CodonPlus, purified
B4: MBP-tagged STRN3 fragment (residues 64–341) (domain or fragment, human, UniProt Q13033 64-341, looked up)
chain: B3 chain
notes: source: E. coli BL21 (DE3) CodonPlus, purified; not shown: MBP, N-terminal, kept
B5: MST2 kinase domain (residues 1–308) (domain or fragment, human, UniProt Q13188 1-308, looked up)
chain: MEQPPAPKSKLKKLSEDSLTKQPEEVFDVLEKLGEGSYGSVFKAIHKESGQVVAIKQVPVESDLQEIIKEISIMQQCDSPYVVKYYGSYFKNTDLWIVMEYCGAGSVSDIIRLRNKTLIEDEIATILKSTLKGLEYLHFMRKIHRDIKAGNILLNTEGHAKLADFGVAGQLTDTMAKRNTVIGTPFWMAPEVIQEIGYNCVADIWSLGITSIEMAEGKPPYADIHPMRAIFMIPTNPPPTFRKPELWSDDFTDFVKKCLVKNPEQRATATQLLQHPFIKNAKPVSILRDLITEAMEIKAKRHEEQQRE
notes: also called kinase domain of MST2; source: E. coli BL21 (DE3) CodonPlus, purified
B6: STRN3 peptide (residues 166–190) (peptide, UniProt Q13033 166-190, looked up)
peptide: QNSQLTWKQGRQLLRQYLQEVGYTD
B7: MST4 (recombinant) (enzyme)
chain: not shown
notes: MST4 (STK26), human; also called STK26; source: E. coli BL21 (DE3) CodonPlus, purified
B8: SIKE1 CC1 (residues 5–65) (domain or fragment, human, UniProt Q9BRV8 5-65, looked up)
chain: IEKILTDAKTLLERLREHDAAAESLVDQSAALHRRVAAMREAGTALPDQYQEDASDMKDMS
notes: SIKE1, human, residues 5-65; Homodimer within the 2:2 crystal complex; also called residues 5–65 of SIKE1; source: E. coli BL21 (DE3) CodonPlus, purified
B9: MST2 (recombinant, wildtype) (enzyme, human, UniProt Q13188 1-491, looked up)
chain: MEQPPAPKSKLKKLSEDSLTKQPEEVFDVLEKLGEGSYGSVFKAIHKESGQVVAIKQVPVESDLQEIIKEISIMQQCDSPYVVKYYGSYFKNTDLWIVMEYCGAGSVSDIIRLRNKTLIEDEIATILKSTLKGLEYLHFMRKIHRDIKAGNILLNTEGHAKLADFGVAGQLTDTMAKRNTVIGTPFWMAPEVIQEIGYNCVADIWSLGITSIEMAEGKPPYADIHPMRAIFMIPTNPPPTFRKPELWSDDFTDFVKKCLVKNPEQRATATQLLQHPFIKNAKPVSILRDLITEAMEIKAKRHEEQQRELEEEEENSDEDELDSHTMVKTSVESVGTMRATSTMSEGAQTMIEHNSTMLESDLGTMVINSEDEEEEDGTMKRNATSPQVQRPSFMDYFDKQDFKNKSHENCNQNMHEPFPMSKNVFPDNWKVPQDGDFDFLKNLSLEELQMRLKALDPMMEREIEELRQRYTAKRQPILDAMDAKKRRQQNF
notes: MST2 (STK3), human; also called STK3; Hippo kinase MST2; source: E. coli BL21 (DE3) CodonPlus, purified
B10: STRIP1 (765–837) (domain or fragment, UniProt Q5VSL9 765-837, looked up)
chain: QAEECALRANIERFNARRYDRAHSNPDFLPVDNCLQSVLGQRVDLPEDFQMNYDLWLEREVFSKPISWEELLQ

Data set [1] deals with the molecule itself. Put plainly: crystal structure; apo SIKE1 CC2, 1.5 Å; 0.1 M Tris (pH 8.5), 0.7 M ammonium tartrate dibasic, 16 °C.
Data set [2] deals with the molecule itself. Kind of data set: crystal structure; SIKE1 CC2 mixed with STRN3 peptide (166–190) at 1:1.2 molar ratio, 1.75 Å; 35% MPD, 0.1 M imidazole (pH 7.5), 16 °C.
Data set [3] addresses T2, MST4 kinase domain (residues 1–300) (human, UniProt Q9P289 1-300).
T2 construct: MST4 (STK26), human, residues 1-300; also called N-terminal kinase domain of MST4; source: E. coli BL21 (DE3) CodonPlus, purified
Kind of data set: pull-down; pulldown with purified recombinant proteins shown in supplementary figures; whether GST or MBP and who carried the tag not told. Particulars: both partners purified.

For data set [4], the target named is T1, C-terminal domain (residues 421–837) of …. The description is as above. As to conditions: both partners purified.
Data set [5] addresses T3, STRIP1 (full-length, His-tagged, insect cells) (UniProt Q5VSL9 1-837).
T3 construct: STRIP1, full length; His tag is TEV-cleavable; also called His-STRIP1; FAM40A; source: High Five insect cells (baculovirus), purified
Kind of data set: pull-down; MBP pulldown: MBP-tagged protein, partner and amylose resin mixed at 4 °C for 1 h in 20 mM HEPES (pH 7.5), 100 mM NaCl; eluted with 20 mM maltose; SDS-PAGE, Coomassie staining. As to conditions: both partners purified.

Data set [6] concerns the target B9. Put plainly: pull-down; GST pulldown: GST-tagged protein, partner and glutathione Sepharose mixed at 4 °C for 1 h in 20 mM HEPES (pH 7.5), 100 mM NaCl; eluted with 20 mM reduced glutathione; SDS-PAGE, Coomassie staining. Particulars: both partners purified.
Data set [7] concerns the target B1. Kind of data set: ITC; iTC200, 25 °C, 20 mM HEPES (pH 7.5), 100 mM NaCl. As to conditions: both partners purified. For orientation: ITC needs no label: the signal is the heat of the interaction.
Data set [8] addresses B1. Kind of data set: crystal structure; SIKE1 CC2 mixed with STRN3 peptide (166–190) at 1:1.2 molar ratio, 1.75 Å; 35% MPD, 0.1 M imidazole (pH 7.5), 16 °C. As to conditions: both partners purified.
In data set [9] the target is T3, STRIP1 (full-length, His-tagged, insect …). Put plainly: pull-down; GST pulldown: GST-tagged protein, partner and glutathione Sepharose mixed at 4 °C for 1 h in 20 mM HEPES (pH 7.5), 100 mM NaCl; eluted with 20 mM reduced glutathione; SDS-PAGE, Coomassie staining. As to conditions: both partners purified.
Data set [10] deals with the molecule itself. Put plainly: crystal structure; SIKE1 CC1-SLMAP CC1 complex reconstituted 1:1 and gel-filtered, 2.3 Å; 0.1 M sodium citrate (pH 5.5), 15% PEG 6000, 16 °C.
In data set [11] the target is B2. Kind of data set: ITC; iTC200, 25 °C, 20 mM HEPES (pH 7.5), 100 mM NaCl. As to conditions: both partners purified.

T2 sequence (Q9P289 1-300): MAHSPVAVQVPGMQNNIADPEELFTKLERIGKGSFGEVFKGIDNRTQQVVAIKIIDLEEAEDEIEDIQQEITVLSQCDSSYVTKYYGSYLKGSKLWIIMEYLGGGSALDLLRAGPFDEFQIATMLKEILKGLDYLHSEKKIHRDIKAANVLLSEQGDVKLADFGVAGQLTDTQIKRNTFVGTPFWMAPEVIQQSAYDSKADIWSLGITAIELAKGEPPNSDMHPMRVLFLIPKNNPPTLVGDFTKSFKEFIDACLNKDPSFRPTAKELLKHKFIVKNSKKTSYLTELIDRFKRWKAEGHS

For B1, the “stoichiometry N” value in [1] is 4; in data set [2], 2.

In the case of B2, the binding result in data set [3], in [4], in [5] and in data set [6] was “binds” in each case.

As to B3, the binding result in data set [6] is listed as “binds”.

For the molecule B4, the binding result in data set [5] is reported as “binds”.

In the case of B5, the binding result in data set [5] is listed as “binds”.

Molecule B6 yielded a dissociation constant Kd in [7] of 2900 nM. Besides, in data set [8], the “stoichiometry N” value is 2 SIKE1 CC2 per STRN3 peptide.

For B7, the binding result in data set [9] is reported as “binds”.

Regarding B8, the “stoichiometry N” value in data set [10] was 2.

For the molecule B9, the binding result in data set [9] is listed as “binds”.

B10 gave a dissociation constant Kd in data set [11] of 1600 nM.
